Common to all, as to assay: EMSA
Holding throughout (conditions): EMSA: DNA mix 40 mM Tris pH 7.6, 2 mM EDTA, 200 mM NaCl (printed '200 M'), 20% glycerol, 0.2 mg/ml BSA, 2 mM DTT, 20 pM duplex, mixed 1:1 with enzyme in 20 mM …
Background: Mobility shift assays separate free from complexed probe on a gel.

Data set [1] deals with MUTYH V246F (MBP fusion) (Homo sapiens).
Data set [2] relates to MUTYH R309C (MBP fusion) (Homo sapiens).
Data set [3] concerns MUTYH N238S (MBP fusion) (Homo sapiens).
Data set [4] deals with MUTYH R241Q (MBP fusion) (Homo sapiens).
The mark [5] stands for this setting: upper limit estimate, THF (abasic analog) opposite 8-oxoguanine.
[6] abbreviates: THF (abasic analog) opposite 8-oxoguanine.
[7] abbreviates: table unit header missing, 2'-fluoro-2'-deoxyadenosine opposite 8-oxoguanine.

Consider Duplex 2 THF:OG (product analog), 30 bp, for which the Kd – broadly, the equilibrium constant for the complex coming apart – in data set [1] (setting [5]) is under 10 pM; in data set [2] (setting [5]), under 10 pM; in data set [3] (setting [6]), 46 pM; in data set [4] (setting [6]), 467 pM.
On to “Duplex 2 fA:OG (substrate analog), 30 bp”, for which the equilibrium dissociation constant (Kd) in data set [1] (setting [7]) stood at 50 pM; in data set [2] (setting [7]) it was 246 pM; in data set [3] (setting [7]) it was 124 pM; in data set [4] (setting [7]) it was 629 pM.

The values are drawn from article PMC12000561.
